± gives the uncertainty stated by the source.
Assay: amyloid nucleation score (Sup35N fusion, yeast selection) (log enrichment); library NNK1; higher = more nucleation; inactive = no reads after selection
How it was run: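 Three technical output replicates were used for random libraries. Psi-negative yeast expressing peptides of 20 random codons fused to Sup35N were induced with 100 μM copper sulfate for 24 hours and grown 7 days at 30°C on medium lacking adenine and uracil, and input and output plasmid inserts were Illumina-sequenced, excluding sequences with under 100 input reads. The nucleation score is the DiMSum log enrichment of output over input reads, centred on the mode score of non-aggregating sequences.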

In order of rising amyloid nucleation score:
1. CQISI  -2.17 ± 2.4
2. VGLCYRGKWDGFLDKKVRWK  -1.73 ± 2.7
3. RRLNCLILFKVVLLATIFCI  -1.42 ± 0.58
4. MRSWIVIMALKM  -1.34 ± 0.85
5. VNVITCLY  -1.33 ± 1.4
6. DGYFQFKFYCTEMGMLFCFF  -1.24 ± 0.56
7. TWCCEVNAAVEHG  -1.17 ± 1.1
8. RVYYSRYYVFDHSYFDTRRG  -1.07 ± 1.3
9. FVADGLAPFLPMTVPLVGIK  -1.06 ± 2.4
10. SRRWNNDLGLFSRERKTTLV  -1.06 ± 1.7
11. MSVCAIYRVRVFQCCFTCLH  -0.953 ± 0.68
12. LSPHLPSESLGLGPMS  -0.921 ± 1.4
13. TMYTVVPNHWNNISFRALSR  -0.909 ± 0.74
14. TIAKST  -0.885 ± 0.86
15. RSLFFV  -0.867 ± 0.86
16. CFSRHAICT  -0.863 ± 0.88
17. YGTVTGEIIYFLSYLVIMRM  -0.848 ± 0.56
18. HFGKRHSYRYLDDTCAQNLY  -0.811 ± 0.63
19. GLWIRFIAVTSSSVEIRANS  -0.776 ± 0.62
20. LKWRV  -0.771 ± 1.1
21. VYLGRFTPDGVMNYYNYSYV  -0.763 ± 1.4
22. ICHGAEHNV  -0.735 ± 1.7
23. VTLSTAIVTNEFMSDISTGY  -0.712 ± 0.52
24. YNKGIRRSDQGLKWTFLWPE  -0.712 ± 0.53
25. VPDESDHFSFRVEMLSLKVD  -0.639 ± 0.45
26. CSDRVKTLSFCWSPSVVFW  -0.636 ± 0.95
27. YCSQPSAWSLRLNRSCPHNM  -0.593 ± 1.1
28. NFDYHTTTVGMELWSLGFSS  -0.585 ± 0.51
29. MSDSG  -0.576 ± 0.81
30. LILKYAVGRRQARVVKRNSR  -0.575 ± 1.4
31. VLSHVGFKSRMSVTNPGCLD  -0.562 ± 0.81
32. LRCYEDLFVGLAHGRMRYTG  -0.561 ± 1.7
33. VVLRSGINL  -0.561 ± 0.29
34. ALSLVISCSGSWRKGRRFLS  -0.53 ± 0.64
35. FSSIIG  -0.528 ± 0.4
36. SHENSRSNNISSHQP  -0.513 ± 0.34
37. LDCYRLRCSLEAIECVISNE  -0.479 ± 0.21
38. FQSECSCIPKAWSVFMGTAG  -0.476 ± 0.58
39. ANLDYWRSSTFTEHMVGLNR  -0.469 ± 1.2
40. SLWTLWGFSFGDT  -0.458 ± 0.47
41. LRGVPLYFDGRHMWYAFSRY  -0.424 ± 0.47
42. MTRWTGRSLTLMRLQVVLRP  -0.413 ± 0.62
43. RQGSDGVSSRKLWFFVRIAI  -0.383 ± 1.7
44. RCGGM  -0.381 ± 0.64
45. FMRYNCNCKWDYFFRDCPAG  -0.357 ± 0.36
46. FYLRSSTNEPRENNVNLALY  -0.345 ± 1.7
47. MNLQYHILN  -0.345 ± 1.7
48. CYDQKILLLLISVTYVRTSD  -0.34 ± 1
49. VNCGRMSAGCREVGWVDGES  -0.316 ± 0.89
50. GNLGI  -0.31 ± 0.59
51. ANSVIFDGRSKGLAKHTVSY  -0.276 ± 0.65
52. YRFWEI  -0.25 ± 0.35
53. FCRDVSVYLDYLDGPRSGWS  -0.245 ± 0.35
54. SVTALKLDSSLQKSRDLVGG  -0.233 ± 1.1
55. LAWVGVLW  -0.219 ± 1.1
56. NLSGSFPN  -0.2 ± 0.92
57. IKKEIRSVFGLSGTSVKGNN  -0.118 ± 0.74
58. SRYYASMYLGNYGWHVLLNW  -0.103 ± 0.23
59. FVSYTSP  -0.079 ± 0.33
60. DEDERWCLDIVG  -0.076 ± 0.37
61. DSVLQDTLIMWCSMKTVSPS  -0.075 ± 0.29
62. WWKRKTSFVSRSYQVRFAQF  -0.058 ± 1.1
63. GNGVLAVTVSFAGTSLSLRF  -0.047 ± 1.4
64. YFTRFGHSELRSFMLVGTDM  -0.007 ± 0.28
65. HLWRVRLV  0.01 ± 0.61
66. VSLAAPGCGFGCQRSRGASQ  0.013 ± 1.1
67. GLLTMIPKDYNCRISYLVHT  0.015 ± 0.64
68. FDTGGVRRRCACVSLYGVDV  0.027 ± 0.43
69. TKSMEPSGR  0.046 ± 0.52
70. YIVVCSIRNLGRINLRGSDT  0.056 ± 0.8
71. FHRNHRINNRMSMAYSC  0.059 ± 0.9
72. IRFHCLHLVAVLTKTRVFEA  0.064 ± 0.95
73. TLNDYYCFMLCGAVNG  0.071 ± 0.63
74. LMGDLYGSLRMCLVGSRWLL  0.082 ± 1.2
75. YLQETLYNKWDWFGNHQGLM  0.107 ± 0.26
76. GASFVGTGKWVLTGWKTRRF  0.124 ± 0.97
77. RLFGLPKYCYVILFPVDVCH  0.132 ± 0.21
78. GEDGG  0.148 ± 0.52
79. GDLRSSILRLPTWRLWWITT  0.174 ± 0.29
80. ICYSGHERYWLNLGICEGDS  0.186 ± 0.32
81. PVCVIRRGMAFSAFGWVPLE  0.188 ± 0.7
82. DAGMH  0.189 ± 0.3
83. VHWRYWFVLISLDQRIGKA  0.199 ± 0.21
84. ALQTPFSKNMEYCCNQ  0.222 ± 0.41
85. TSLYQAYSIYSFRYYIAYMC  0.232 ± 0.68
86. ADFVSFSSFYFWWHVVSLDT  0.238 ± 0.56
87. VDMNWVITGTNWEFRLRVDA  0.24 ± 0.43
88. LFYTCRVDQGPVWGLLTKRR  0.344 ± 0.77
89. RALGIDIRIFMVDDNSAFSI  0.347 ± 1.1
90. GIGFFRCCLYRMFRYTRLSH  0.365 ± 0.23
91. VSLRCWCWGGTHVKPQRGYV  0.377 ± 0.77
92. YSYSVAV  0.38 ± 0.51
93. DYSLKCLTPVVSDRAWCRLN  0.398 ± 0.83
94. IACSARMFYDS  0.399 ± 0.47
95. TVNRG  0.409 ± 1.4
96. LLMLGLLSQH  0.427 ± 0.28
97. FDGFRGNG  0.487 ± 0.49
98. DVIMEGFAMCVWSRVTALLE  0.492 ± 0.85
99. NTESLEFRSKKGGNCRAGLS  0.495 ± 0.97
100. RDSHSLMVVGFRYELSQGLK  0.496 ± 1.1
101. LPCMGKLIYVCRSRLEREQS  0.498 ± 0.62
102. ARWWVRLEYC  0.523 ± 0.29
103. DYTDMYTC  0.571 ± 0.5
104. GNFLFCTVDRHLTGSCS  0.589 ± 0.47
105. LWFLNRRLVKQSYG  0.606 ± 0.38
106. GWTLPNRRLWHFFMTIT  0.654 ± 0.45
107. RLRLWFVASRMVDKGSGLNV  0.67 ± 0.49
108. TRLRTYKCLQMGDYHVSSFK  0.672 ± 0.79
109. DDRVSQLAWGLCAVSYARLE  0.681 ± 0.54
110. SVLLRFYFTRNCGFFGRSTV  0.7 ± 0.97
111. HSPLTRNVRSCVK  0.718 ± 0.36
112. GAFNQSMDSCGFMFPHNMRP  0.724 ± 1
113. SSMLSSNRRSALWKQDVSKG  0.734 ± 1.1
114. NWEKVNLLTLRNTFRCSSRA  0.751 ± 0.27
115. GALGWWSSFVCEEAGKLTLR  0.792 ± 0.48
116. KAEYSDLASFGCHGHEEGGG  0.793 ± 1
117. KVYYYKPLIRNPTSFLITIL  0.817 ± 0.47
118. QHIPGDCFYHCCQFHCAQKE  0.818 ± 0.77
119. EASTYHFSCGRANVTDELGT  0.882 ± 0.53
120. SYSIASVFWSSMSNGLGR  0.886 ± 0.2
121. VRRGFGPIITLYNFIISIWF  0.895 ± 0.79
122. MTAPHFLYLKRPHRPTRPDL  0.898 ± 0.58
123. EVYVRRRVSIQKEGVLHAQK  0.907 ± 0.97
124. YKDFVGRTEFYRVGMFRLTE  0.912 ± 0.43
125. IEYFCWFAILGKPFESGIGS  0.991 ± 0.51
126. ILMFISVFYCFCRKTRYLNR  1.01 ± 0.31
127. RVLSSTNHSAYHWIEKGSTF  1.01 ± 0.31
128. CFVVAWCKTITV  1.02 ± 0.66
129. QGCIVQGAASEIEANLAQLS  1.08 ± 0.59
130. TSRRAEYRWSYQEKSGSSRS  1.26 ± 0.45
131. PPWPVNSDDPGHYETSSNFS  1.29 ± 0.73
132. GCILHFHSGRGYIGSRMVGW  1.31 ± 0.32
133. RFRYDTVMMNMFLNRVSFGG  1.38 ± 0.4
134. HCVRI  1.4 ± 0.6
135. CTNATVPASSTERV  1.55 ± 0.5
136. KSEDTSRFYTLMMSMYTQRF  1.76 ± 0.14
137. TKVKCSLLSFWEKKFLLLRL  1.82 ± 0.34
138. NVVHRLLWQSSVTSYIAVSY  1.86 ± 0.14
139. IYRSMNRLVVQEGYAFIGGG  2 ± 0.3
140. MPDYVVGYHGGWSCNLILRF  2.54 ± 0.19
141. LLFFGYYAFDHICYAEYLSC  2.71 ± 0.14
142. LQAKMTIGAFFISYSSMYPG  2.74 ± 0.08
143. APSNNFCNNGLMFRYVRPGD  2.81 ± 0.21
144. STCSPKELQFMSYVCWVKFC  3.32 ± 0.11
145. SDFQRE  3.91 ± 0.099
146. SQGAMFVTFMFLEYVMPQPP  3.95 ± 0.089
147. RVMVFGRHNEDVSKFSISGK  4 ± 0.1
148. ITKLIVSFQGFFV  4.24 ± 0.12
149. VLDYGIVFNVVLLICIRTTE  4.87 ± 0.064
150. YVVFMYFAF  5.9 ± 0.068
151. IGCSCNPYGTFWG  5.93 ± 0.066
152. DIATCRIWTVCTCQMCFISV  6.17 ± 0.089
153. FAFTIFPCYYWDLNCLRFQH  6.549 ± 0.047
154. VVCQVNIHLNGVCLHRCLEE  6.862 ± 0.059
155. ISNFVGTTMIIQGSVNTVYK  6.962 ± 0.055
156. LCLLCNRYRWTN  7.041 ± 0.048
157. LFALNCDCM  7.448 ± 0.053

For LWYTFMSLHLGTVLEVRK, the amyloid nucleation score was “inactive”.
With VWVKAMSFFWVIALPHAVYV the amyloid nucleation score was “inactive”.
For LRFVTINRRSVSVYSSNTKS, the amyloid nucleation score was “inactive”.
In the case of DSYDLY, the amyloid nucleation score is reported as “inactive”.
For TLSLNGLNP, the amyloid nucleation score was “inactive”.
For SIHVVVTQLALISLLNVKSV, the amyloid nucleation score was “inactive”.
With RSIFVP the amyloid nucleation score was “inactive”.
With EYTGSEPYLLVQVSLLNQRV the amyloid nucleation score was “inactive”.
With NGFGAYVYNSYLRFGNLSRA the amyloid nucleation score was “inactive”.
With FDHSG the amyloid nucleation score was “inactive”.
For SDDLRMHTHGGGYSGFWKGY, the amyloid nucleation score was “inactive”.
With TCNQS the amyloid nucleation score was “inactive”.
With VFTFLSMLRWVIFCNVVGVD the amyloid nucleation score was “inactive”.
In the case of YRPIDFLIPYSSVML, the amyloid nucleation score is reported as “inactive”.

Reference: the supplement of paper PMC12042874
